Data set [1] addresses T1, human urinary PR-3 inactivated by phenyl methyl sulfonyl fluoride (PMSF) (human, UniProt P24158 28-248, inactivated by PMSF (1 mM); the modified residue is not stated).
T1 construct: mature; Same preparation as the urinary PR-3, treated with PMSF before the assay; also called PMSF pretreated urinary PR-3
T1 sequence (looked up): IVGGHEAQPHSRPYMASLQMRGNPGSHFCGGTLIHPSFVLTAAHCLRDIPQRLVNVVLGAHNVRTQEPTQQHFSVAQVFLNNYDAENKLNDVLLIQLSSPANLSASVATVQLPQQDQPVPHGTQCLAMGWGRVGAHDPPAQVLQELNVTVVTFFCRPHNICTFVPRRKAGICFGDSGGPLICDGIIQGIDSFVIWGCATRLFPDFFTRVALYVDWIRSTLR
Put plainly: SPR (BIAcore), IL-32 immobilized; urinary PR-3 inactivated by PMSF (1 mM) (FIG. 2B). On the procedure: (§1) FIG. 2 A. IL-32 (20 μg/ml) in acetate buffer pH 4.6) was immobilized to a single channel of a BIAcore chip as recommended by the manufacturer (Amersham Pharmacia, Uppsala Sweden). […] The resulting kD was 7.9×10⁻⁸ M.
(§2) IL-32 (20 μg/ml) in acetate buffer pH 4.6) was immobilized to a single channel of a BIAcore chip as recommended by the manufacturer (Amersham Pharmacia, Uppsala Sweden). […] The same analysis was done with PR-3 that was inactivated by PMSF (1 mM) (FIG. 2B). The resulting kD was 7.9×10⁻⁸ M. The same analysis was done with a commercially available human neutrophil derived PR-3 (Athens Research and Technology, Athens Ga., 0.5 μg in 20 μl gelatin solution) (FIG. 3A). The resulting kD was 1.2×10⁻⁸ M. The binding was repeated with commercial PR-3 that was inactivated by PMSF (FIG. 3B). The resulting kD was 3.5×10⁻⁸ M.
Background: SPR reads the build-up and loss of mass on a sensor chip optically.

Data set [2] concerns the target T2, human urinary Proteinase-3 (PR-3), affinity purified (elution fraction 3 of the IL-32 column), active (human, UniProt P24158 28-248).
T2 construct: mature; also called urinary PR-3; urinary PR3
T2 sequence (looked up): T1 sequence (looked up)
As to the kind of experiment: SPR (BIAcore), IL-32 immobilized, PR-3 at 10-80 nM; urinary PR3, active (FIG. 2A). As to the method: as §1, §2

Data set [3] deals with T3, commercially available human PR-3 (Athens Research and Technology) inactivated by PMSF (human, UniProt P24158 28-248, inactivated by PMSF; the modified residue is not stated).
T3 construct: mature; Same product as the commercial PR-3, treated with PMSF before the assay; also called PMSF pretreated commercial PR-3
T3 sequence (looked up): T1 sequence (looked up)
As to the kind of experiment: SPR (BIAcore), IL-32 immobilized; commercial PR-3 inactivated by PMSF (FIG. 3B). As to the method: as §1
(§3) For details see FIG. 2. The binding data gave a kD of 1.2×10⁻⁸ M with active PR-3, which considerably degraded the immobilized IL-32 (FIG. 3 A). The kD of commercially available PR-3 that was inactivated by PMSF (FIG. 3 B) was 3.5×10⁻⁸ M.
as §2

Data set [4] addresses T4, commercially available human neutrophil derived PR-3 (Athens Research and Technology), active (human, UniProt P24158 28-248).
T4 construct: mature; Bought; purified from human neutrophils; also called commercial PR-3; commercially available PR-3
T4 sequence (looked up): T1 sequence (looked up)
Put plainly: SPR (BIAcore), IL-32 immobilized; commercial neutrophil-derived PR-3, active (FIG. 3A). As to the method:
as §1, §3, §2

The target of data set [5] is T5, 125I-IL-32 (radio-iodinated IL-32).
T5 chain: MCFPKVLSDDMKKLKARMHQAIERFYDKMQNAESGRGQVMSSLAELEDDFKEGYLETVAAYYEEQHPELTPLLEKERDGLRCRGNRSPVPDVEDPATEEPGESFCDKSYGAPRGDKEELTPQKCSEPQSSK

Usually Kd stands for the concentration at which binding is half-saturated.

B1: recombinant human IL-32α produced in E. coli (ligand)
chain: T5 chain
notes: also called hrIL-32; human recombinant IL-32
As for B1, the Kd in data set [1] was 79 nM; in data set [2], 26.5 nM; in data set [3], 35 nM; in data set [4], 12 nM.

B2: human urinary Proteinase-3 (PR-3), affinity purified (elution fraction 3 of the IL-32 column), active (protein)
chain: T1 sequence (looked up)
For the molecule B2, the “cleavage of 125I-IL-32 (SDS-PAGE, autoradiography)” value (“cleavage” below) in data set [5] is “the 20 kDa band completely disappeared and the levels of the 16 and 13 kDa IL-32 cleavage products increased after a 5 min. incubation with PR-3”.

B3: human urinary PR-3 inactivated by phenyl methyl sulfonyl fluoride (PMSF) (protein)
chain: T1 sequence (looked up)
Regarding B3, the “cleavage” value in data set [5] was “no cleavage products were observed with PMSF pretreated PR-3 incubated with IL-32”.

B4: commercially available human PR-3 (Athens Research and Technology) inactivated by PMSF (protein)
chain: T1 sequence (looked up)
For B4, the “cleavage” value in data set [5] is recorded as “no cleavage products were observed with PMSF pretreated PR-3 incubated with IL-32”.

B5: commercially available human neutrophil derived PR-3 (Athens Research and Technology), active (protein)
chain: T1 sequence (looked up)
As for B5, in data set [5], the “cleavage” value is given as “the commercial PR-3 is more potent than the urinary PR-3, leading to complete disappearance of the 20 kDa IL-32 band within 1 min”.

These data come from patent publication US20080267908A1 (YEDA RESEARCH AND DEVELOPMENT, published 2008).
